According to US20180186873A1 (CEPHALON, published 2018):
Read-outs that look alike come from different tables or passages of the source.

Assays:
Assay in all cases: SPR
[1] = target: T1, recombinant human IL-5 (human, UniProt P05113 20-134)
[2] = target: T1, recombinant human IL-5; remark: listed apart in the source
[3] = target: T1, recombinant human IL-5; remark: listed apart in the source
[4] = target: T1, recombinant human IL-5; remark: listed apart in the source
[5] = target: T1, recombinant human IL-5; remark: listed apart in the source
[6] = target: T1, recombinant human IL-5; remark: listed apart in the source
[7] = target: T1, recombinant human IL-5; remark: listed apart in the source
[8] = target: T1, recombinant human IL-5; remark: listed apart in the source
[9] = target: T1, recombinant human IL-5; remark: listed apart in the source

Kd [1]: 0.174 nM
koff [1]: 0.000252 s⁻¹
kon [1]: 1.45e+06 M⁻¹ s⁻¹
Kd [2]: 0.168 nM
koff [2]: 0.00023 s⁻¹
kon [2]: 1.37e+06 M⁻¹ s⁻¹
Kd [3]: 0.168 nM
koff [3]: 0.000239 s⁻¹
kon [4]: 1.43e+06 M⁻¹ s⁻¹
Kd [5]: 0.193 nM
koff [5]: 0.000285 s⁻¹
kon [5]: 1.48e+06 M⁻¹ s⁻¹
Kd [6]: 0.15 nM
koff [6]: 0.000215 s⁻¹
kon [6]: 1.43e+06 M⁻¹ s⁻¹
Kd [7]: 0.173 nM
koff [7]: 0.000243 s⁻¹
kon [7]: 1.41e+06 M⁻¹ s⁻¹
Kd [8]: 0.2 nM
koff [8]: 0.000284 s⁻¹
kon [8]: 1.42e+06 M⁻¹ s⁻¹
Kd [9]: 0.16 nM
koff [9]: 0.000232 s⁻¹
kon [9]: 1.45e+06 M⁻¹ s⁻¹
B1: 3A5.040 (antibody, human IgG4 S228P, lambda)
heavy: not shown
light: SYVLTQPPSVSVAPGQTARITCGGNNIGSKNVYWYQQKPGQAPVLVVHDDSDRPSGIPERFSGSNSGNTATLTISRVEVGDEADYSCQVWDSSSDHVVFGGGTKLTVLGQPKAAPSVTLFPPSSEELQANKATLVCLISDFYPGAVTVAWKADSSPVKAGVETTTPSKQSNNKYAASSYLSLTPEQWKSHRSYSCQVTHEGSTVEKTVAPTECS
